Results reported in article PMC11784312 (2024).

Tests used:
Assay in all cases: ELISA
[1] = molecular target: hemagglutinin of A/duck/Guangxi/SDY129/2014 (H7N9) (influenza A virus …)
[2] = molecular target: hemagglutinin of A/chicken/Yunnan/SD193/2017 (H7N9) (influenza A virus …)
[3] = molecular target: hemagglutinin of A/pigeon/Shanghai/S1069/2013 (H7N9) (influenza A virus …)
[4] = molecular target: hemagglutinin of A/chicken/Guangdong/SD008/2017 (H7N9) (influenza A virus …)

Binder	EC50 [1] [µg/mL]	EC50 [2] [µg/mL]	EC50 [3] [µg/mL]	EC50 [4] [µg/mL]
1H9 neutralizing antibody (antibody, V domains shown) VH: VQLQESGPGLVKPSQSLSLTCTVTGYSITSDYTWNWIRQFPGNKLEWMGYITYSDTTSYNPSLKSRISITRDTSKNQFFLQLNSVTTEDTATYYCARSDGWYGFAYWGQGTLVTVSA VL: DIQMNQSPSSLSASLGDTITITCHASQNINVWLSWYQQKPGNIPKLLIYKAFDLHTGVPSRFSGSGSGTGFTLTISSLQPEDIATYYCQQGQTYPFTFGGGTKLEIK	0.0808	0.195	0.0837	0.0861
2D7 neutralizing antibody (antibody, V domains shown) VH: VQLQESGPGLVKPSQSLSLTCTVTGYSITSDYTWNWIRQFPGNKLEWMGYISYSGSTSYNPSLKSRMSITRDTSKNQFLLQLNSVTTADTATYYCTRDGPYWHIDVWGAGTTVTVSS VL: DIQMNQSPSSLSASLGDTITITCHASQTINIWLSWYQLKPGNIPKLLIYKASNLHTGVPSRFSGSGSGTGFTLTISSLQPEDIASYYCQQGQSFPYTFGGGTKLEIK	0.0535	0.0539	0.0857	0.0561
